T1: FcγRIIa R extracellular domain with C-terminal His tag (human, UniProt P12318 34-217)
T1 construct: extracellular domain; also called FcgRIIa R; 2aR; not shown: His tag at the C terminus
T1 sequence (looked up): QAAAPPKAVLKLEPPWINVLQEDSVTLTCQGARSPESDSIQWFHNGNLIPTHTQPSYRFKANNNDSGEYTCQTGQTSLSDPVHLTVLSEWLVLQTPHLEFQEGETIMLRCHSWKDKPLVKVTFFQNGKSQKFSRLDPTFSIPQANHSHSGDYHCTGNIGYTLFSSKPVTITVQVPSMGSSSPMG

B1: GpH7-A5/GpH7-B3 variant S337_09D/GpL16-k0 (antibody, human IgG1, kappa)
heavy 1: not shown
heavy 2: not shown
light: DIVMTQSPLSLPVTPGEPASISCQASESLVHSNRNTYLHWYLQKPGQSPQLLIYKVSNRFSGVPDRFSGSGSGTDFTLKISRVEAEDVGVYYCSQNTHVPPTFGQGTKVEIERTVAAPSVFIFPPSDEQLKSGTASVVCLLNNFYPREAKVQWKVDNALQSGNSQESVTEQDSKDSTYSLSSTLTLSKADYEKHKVYACEVTHQGLSSPVTKSFNRGEC
notes: heterodimerized: alteration in one H chain only; also called He Ab S337_09D
B2: GpH7-A5/GpH7-B3 variant S239_08L/GpL16-k0 (antibody, human IgG1, kappa)
heavy 1: not shown
heavy 2: not shown
light: B1 light
notes: heterodimerized: alteration in one H chain only; also called He Ab S239_08L
B3: GpH7-A5/GpH7-B3 variant K334_02A/GpL16-k0 (antibody, human IgG1, kappa)
heavy 1: not shown
heavy 2: not shown
light: B1 light
notes: heterodimerized: alteration in one H chain only; also called He Ab K334_02A
B4: GpH7-A5/GpH7-B3 variant P331_20W/GpL16-k0 (antibody, human IgG1, kappa)
heavy 1: not shown
heavy 2: not shown
light: B1 light
notes: heterodimerized: alteration in one H chain only; also called He Ab P331_20W
B5: GpH7-A5/GpH7-B3 variant K334_08L/GpL16-k0 (antibody, human IgG1, kappa)
heavy 1: not shown
heavy 2: not shown
light: B1 light
notes: heterodimerized: alteration in one H chain only; also called He Ab K334_08L
B6: GpH7-A5/GpH7-B3 variant K334_05P/GpL16-k0 (antibody, human IgG1, kappa)
heavy 1: not shown
heavy 2: not shown
light: B1 light
notes: heterodimerized: alteration in one H chain only; also called He Ab K334_05P
B7: GpH7-A5/GpH7-B3 variant P238_04F/GpL16-k0 (antibody, human IgG1, kappa)
heavy 1: not shown
heavy 2: not shown
light: B1 light
notes: heterodimerized: alteration in one H chain only; also called He Ab P238_04F
B8: GpH7-A5/GpH7-B3 variant S337_07I/GpL16-k0 (antibody, human IgG1, kappa)
heavy 1: not shown
heavy 2: not shown
light: B1 light
notes: heterodimerized: alteration in one H chain only; also called He Ab S337_07I
B9: GpH7-A5/GpH7-B3 variant S337_16H/GpL16-k0 (antibody, human IgG1, kappa)
heavy 1: not shown
heavy 2: not shown
light: B1 light
notes: heterodimerized: alteration in one H chain only; also called He Ab S337_16H
B10: GpH7-A5/GpH7-B3 variant T335_07I/GpL16-k0 (antibody, human IgG1, kappa)
heavy 1: not shown
heavy 2: not shown
light: B1 light
notes: heterodimerized: alteration in one H chain only; also called He Ab T335_07I
B11: GpH7-A5/GpH7-B3 variant S239_18N/GpL16-k0 (antibody, human IgG1, kappa)
heavy 1: not shown
heavy 2: not shown
light: B1 light
notes: heterodimerized: alteration in one H chain only; also called He Ab S239_18N
B12: GpH7-A5/GpH7-B3 variant K334_19Q/GpL16-k0 (antibody, human IgG1, kappa)
heavy 1: not shown
heavy 2: not shown
light: B1 light
notes: heterodimerized: alteration in one H chain only; also called He Ab K334_19Q
B13: GpH7-A5/GpH7-B3 variant L328_14T/GpL16-k0 (antibody, human IgG1, kappa)
heavy 1: not shown
heavy 2: not shown
light: B1 light
notes: heterodimerized: alteration in one H chain only; also called He Ab L328_14T
B14: GpH7-A5/GpH7-B3 variant L235_20W/GpL16-k0 (antibody, human IgG1, kappa)
heavy 1: not shown
heavy 2: not shown
light: B1 light
notes: heterodimerized: alteration in one H chain only; also called He Ab L235_20W
B15: GpH7-A5/GpH7-B3 variant S337_15Y/GpL16-k0 (antibody, human IgG1, kappa)
heavy 1: not shown
heavy 2: not shown
light: B1 light
notes: heterodimerized: alteration in one H chain only; also called He Ab S337_15Y
B16: GpH7-A5/GpH7-B3 variant T335_02A/GpL16-k0 (antibody, human IgG1, kappa)
heavy 1: not shown
heavy 2: not shown
light: B1 light
notes: heterodimerized: alteration in one H chain only; also called He Ab T335_02A
B17: GpH7-A5/GpH7-B3 variant S267_19Q/GpL16-k0 (antibody, human IgG1, kappa)
heavy 1: not shown
heavy 2: not shown
light: B1 light
notes: heterodimerized: alteration in one H chain only; also called He Ab S267_19Q
B18: GpH7-A5/GpH7-B3 variant S337_03V/GpL16-k0 (antibody, human IgG1, kappa)
heavy 1: not shown
heavy 2: not shown
light: B1 light
notes: heterodimerized: alteration in one H chain only; also called He Ab S337_03V
B19: GpH7-A5/GpH7-B3 variant S267_06M/GpL16-k0 (antibody, human IgG1, kappa)
heavy 1: not shown
heavy 2: not shown
light: B1 light
notes: heterodimerized: alteration in one H chain only; also called He Ab S267_06M
B20: GpH7-A5/GpH7-B3 variant K334_10E/GpL16-k0 (antibody, human IgG1, kappa)
heavy 1: not shown
heavy 2: not shown
light: B1 light
notes: heterodimerized: alteration in one H chain only; also called He Ab K334_10E
B21: GpH7-A5/GpH7-B3 variant P271_08L/GpL16-k0 (antibody, human IgG1, kappa)
heavy 1: not shown
heavy 2: not shown
light: B1 light
notes: heterodimerized: alteration in one H chain only; also called He Ab P271_08L
B22: GpH7-A5/GpH7-B3 variant S298_08L/GpL16-k0 (antibody, human IgG1, kappa)
heavy 1: not shown
heavy 2: not shown
light: B1 light
notes: heterodimerized: alteration in one H chain only; also called He Ab S298_08L

For this test, the target named is T1, FcγRIIa R extracellular domain with …. In words: SPR (Biacore), relative FcγRIIa R binding, GpH7-A5/GpH7-B3/GpL16-k0 = 100.
Consider B1, for which the He/Con_2aR was 115 % of control.

As for B2, the He/Con_2aR was 122 % of control. B3: the He/Con_2aR was 105 % of control. The same measure for B4: 110 % of control; for B5: 106 % of control. For B6, the He/Con_2aR is 103 % of control. Consider B7, for which the He/Con_2aR was 174 % of control. Turning to B8, the He/Con_2aR is 109 % of control. On to B9, for which the He/Con_2aR was 109 % of control.

B10: the He/Con_2aR was 109 % of control. Regarding B11, the He/Con_2aR is 111 % of control.

Consider B12, for which the He/Con_2aR was 109 % of control. In the case of B13, the He/Con_2aR is 119 % of control.

Turning to B14, the He/Con_2aR is 131 % of control. The same measure for B15: 105 % of control; for B16: 102 % of control; for B17: 135 % of control. B18: the He/Con_2aR is 106 % of control.

As to B19, the He/Con_2aR is 122 % of control. On to B20, for which the He/Con_2aR is 106 % of control. B21: the He/Con_2aR was 104 % of control.

Turning to B22, the He/Con_2aR was 105 % of control.

These data come from US20150344570A1 (published 2015).
